Laboratory results as given in patent publication US20260266848A1, “COMPOSITIONS AND METHODS FOR DIAGNOSING AND TREATING DYSTONIA” (Duke University, priority 2023, published 2026).

Columns and labels:
DYT-TOR1A MEF EVs = assay: Quantitative LC-MS/MS proteomics of EVs from drug-treated DYT-TOR1A MEF cultures (ritonavir, salubrinal); format: cell-based, mouse; design: key to RTV Corrective Direction / RTV Corrective Direction, Grwd1 / RTV Corrective Direction, Srrm2 / RTV Corrective Direction, Rbm17 / RTV Corrective Direction, Dcaf8 / RTV Corrective Direction, Edil3 / RTV Corrective Direction, Timp3 / RTV Corrective Direction, Heatr3 / RTV Corrective Direction, Brd4 / RTV Corrective Direction, P3h4 / RTV Corrective Direction, Pacsin3 / RTV Corrective Direction, Naa50 / RTV Corrective Direction, Lpar6 / RTV Corrective Direction, Ndrg1 / RTV Corrective Direction, Kntc1 / RTV Corrective Direction, Cdk11b / RTV Corrective Direction, Sumo1 / RTV Corrective Direction, Lsm4 / RTV Corrective Direction, Hmga2 / RTV Corrective Direction, Cstf1 / RTV Corrective Direction, Tes / RTV Corrective Direction, Sbno1 / RTV Corrective Direction, Unc119b / RTV Corrective Direction, Cfdp1 / RTV Corrective Direction, Sec61b: YES = protein abundance effect opposite to DYT/WT; conditions: EV protein abundance; for RTV Corrective Direction: DYT + RTV (ritonavir) vs DYT, direction compared with DYT/WT; for DYT + RTV/DYT Cohen's d: ritonavir (RTV)-treated DYT vs DYT
WT MEF EVs = assay: Quantitative LC-MS/MS proteomics of EVs from ISRIB-treated WT MEF cultures; format: cell-based, mouse; design: key to ISRIB and DYT Parallel Direction / ISRIB and DYT Parallel Direction, Ctdsp1 / ISRIB and DYT Parallel Direction, Pcdh19 / ISRIB and DYT Parallel Direction, Tspan7 / ISRIB and DYT Parallel Direction, Myo1e / ISRIB and DYT Parallel Direction, Plpp3 / ISRIB and DYT Parallel Direction, Sh3bp4 / ISRIB and DYT Parallel Direction, Dnajc7 / ISRIB and DYT Parallel Direction, Drg1 / ISRIB and DYT Parallel Direction, Maea: YES = protein abundance effect similar to DYT/WT; conditions: EV protein abundance; for WT + ISRIB/WT Cohen's d: ISRIB-treated WT vs WT; for ISRIB and DYT Parallel Direction: WT + ISRIB vs WT, direction compared with DYT/WT

Molecule | RTV Corrective Direction (DYT-TOR1A MEF EVs) | DYT + RTV/DYT Cohen's d (DYT-TOR1A MEF EVs) | WT + ISRIB/WT Cohen's d (WT MEF EVs) | ISRIB and DYT Parallel Direction (WT MEF EVs)
Tars (protein, UniProt Q9D0R2 1-722, looked up) Threonine--tRNA ligase 1, …: MSQEKASSPSGKMDGEKPVDASEEKRKEGGKKKSKDGGGDGGRAELNPWPEYINTRLDMYNKLKAEHDSILAEKAAKDSKPIKVTLPDGKQVDAESWKTTPYQIACGISQGLADNTVVAKVNKVVWDLDRPLETDCTLELLKFEDEEAQAVYWHSSAHIMGEAMERVYGGCLCYGPPIENGFYYDMYLEEGGVSSNDFSSLETLCKKIIKEKQTFERLEVKKETLLEMFKYNKFKCRILNEKVNTPTTTVYRCGPLIDLCRGPHVRHTGKIKTLKIHKNSSTYWEGKADMETLQRIYGISFPDPKLLKEWEKFQEEAKNRDHRKIGRDQELYFFHELSPGSCFFLPKGAYIYNTLMEFIRSEYRKRGFQEVVTPNIFNSRLWMTSGHWQHYSENMFSFEVEKEQFALKPMNCPGHCLMFDHRPRSWRELPLRLADFGVLHRNELSGALTGLTRVRRFQQDDAHIFCAMEQIEDEIKGCLDFLRTVYSVFGFSFKLNLSTRPEKFLGDIEIWNQAEKQLENSLNEFGEKWELNPGDGAFYGPKIDIQIKDAIGRYHQCATIQLDFQLPIRFNLTYVSHDGDDKKRPVIVHRAILGSVERMIAILTENYGGKWPFWLSPRQVMVVPVGPTCDEYAQKVRQQFHDAKFMADTDLDPGCTLNKKIRNAQLAQYNFILVVGEKEKASGTVNIRTRDNKVHGERTVEETVRRLQQLKQTRSKQAEEEF | YES | 6.28 | −1.16 | YES
Spr (protein, UniProt P35270 1-261, looked up) Sepiapterin reductase: MEGGLGRAVCLLTGASRGFGRTLAPLLASLLSPGSVLVLSARNDEALRQLEAELGAERSGLRVVRVPADLGAEAGLQQLLGALRELPRPKGLQRLLLINNAGSLGDVSKGFVDLSDSTQVNNYWALNLTSMLCLTSSVLKAFPDSPGLNRTVVNISSLCALQPFKGWALYCAGKAARDMLFQVLALEEPNVRVLNYAPGPLDTDMQQLARETSVDPDMRKGLQELKAKGKLVDCKVSAQKLLSLLEKDEFKSGAHVDFYDK | YES | 3.69 | −3.64 | YES
Eif2b1 (protein, UniProt Q99LC8 1-305, looked up) Translation initiation factor …: MEDGELIEYFKSQMKGDPKMASAVAAIQTLLEFLKRDKGETLQGLRANLTYAIKTLCGVDSSVAVSSGGELFLRFISLTSLEYSDYSKCKKIMIERGELFLRRISLSRNKIANLCHTFIKDGARILTHAYSRVVLRVLEEAVAAKKRFSVYITESQPDLSGKKMAKALSHLNVPVTVVLDAAVGYIMEKADLVIVGAEGVVENGGIINKIGTNQMAVCAKAQNKPFYVVAESFKFVRLFPLNQEDVPDKFKYKADTLKSVQTGQDLKEEHPWVDYTSPSLITLLFTDLGVLTPSAVSDELIKLYL | YES | 5.03 | −0.70 | YES
Gmpr2 (protein, UniProt Q99L27 1-348, looked up) GMP reductase 2: MPHIDNDVKLDFKDVLLRPKRSTLKSRSEVELTRSFSFRNSKQMYSGIPVIAANMDTVGTFEMARVLCKFSLFTAIHKHYSIHQWQEFASQNPDCLECLAASSGSGSADFEQLEQILEAIPQVKYICLDVANGYSEHFVEFVKDVRKRFPQHTIMAGNVVTGEMVEELILSGADIIKVGIGPGSVCTTRKKTGVGYPQLSAVMECADAAHGLKGHIISDGGCSCPGDVAKAFGAGADFVMLGGMLAGHSESGGELIERDGKKYKLFYGMSSEMAMKKYSGGVAEYRASEGKIVEVPFKGDVEHTIRDILGGIRSTCTYVGAAKLKELSRRTTFIRVTQQVNPIFSNSQ | YES | 5.10 | −2.98 | YES
Rab3gap2 (protein, UniProt Q8BMG7 1-1366, looked up) Rab3 GTPase-activating …: MACSIVQFCSFQDLQSARDFLFPHLREETPGALKRDPSKTSSWEDDSWGAWEETEPREPEEEGNTSKTQKNSWLQECVLSLSPTSDLMVIAREQKAAFLVRKWKHGDKGKEEMQFAVGWSGSVSAEEGEYVTSALCIPLASQKRSSTGRPDWTCIVVGFTSGYVRFYTEGVLLLAQLLNEDKVLQLKCRTYEIPRHPGVTEQNEELSILYPAAIVTIDGFSLFQSLRACRNQVAKAAASGNENIQPPPLAYKKWGLQDIDTIIDHASVGIMTLSPFDQMKTASNIGGFNAAIKNSPPAMSQYITVGSSPFTGFFYALEGSTQPLLSHVALAVASKLTSALFSAASGWLGWKSKHEEDTVQKQKPKMEPATPLAVRFGLPDSRRHGESICLSPCNTLAAVTDDFGRVILLDVARGIAIRMWKGYRDAQVGWIQIVEDLHERVPEKGGFSPFGNTQGPSRVAQFLVIYAPRRGILEVWNTQQGPRVGAFNVGKHCRLLYPGYKIMGLNNVTSQSWQPQTYQICLVDPVSASVKAVNVPFHLALSDKKSERAKDLHLVKKLSALLRAKSPRPDSFETEIKELILDIKYPATKKQALESILASDRLSFSCLRNVTQTLMDTLKNQELESVDEGLLQFCASKLKLLHLYESVSQLNTLDFHSDTPFSDNDLAVLLRLDDKELLKLRALLEKYKQENTKATVRFSEDADRVLPVKTFLEYLEYEKDALSIRKIGEEECVALGSFFFWKCLHGKSSTEEMCHSLESAGLSPQQLLSLLLSVWLSKEKDILDKPQSVCCLHTMLSLLSKMKVAIDETWDSQSVSPWWQQMRMACIQSENSGAALLSAHVGHSVAAQMSSGATDKKFSQMELDADAEALTDSWEALSLDTEYWKLLLRQLEDCLILQTLLHSKLSPPAAKAPSLQSEPLPRLSVKKLLEGGKGGIADSVAKWIFKQDLSPELLKCANKERDVENPDEPREDLLHLAYEQFPCSLELDVLHAHCCWEYVVQWNKDPEEARFLVRSIEHLKQILNPHVQNGIALMMWNTFLVKRFSAATYLMDKVGKSPKDRLCRRDVGMSDTALTSFLGSCLELLQTSLEADISRDEVQVPVLDTEDAWLSVEGPISIVELALEQKPIHYPLVEHHSVLCSILYASMRFSLKSVKPLALFDSKGKNAFFKDLTSIQLLPSGEMDPNFISVRQQFLLKVVSAAVQAQHSKDKDPSAEAANTHWKDLNWPGLAVDLAHHLQVSDDVIRRHYVGELYSHGADLLGEEAIFQVQDKEVLASQLLVLTGQRLAHALFHTQTKEGMELLARLPPTLCTWLKAMNPQDLQNTGVPIAATAKLVHKVMELLPEKHGQYSLALHLIDAVEAMATL | YES | 4.70 | −0.43 | YES
Hmgcs1 (protein, UniProt Q8JZK9 1-520, looked up) Hydroxymethylglutaryl-CoA …: MPGSLPLNAEACWPKDVGIVALEIYFPSQYVDQAELEKYDGVDAGKYTIGLGQARMGFCTDREDINSLCLTVVQKLMERHSLSYDCIGRLEVGTETIIDKSKSVKSNLMQLFEESGNTDIEGIDTTNACYGGTAAVFNAVNWVESSSWDGRYALVVAGDIAIYATGNARPTGGVGAVALLIGPNAPLIFDRGLRGTHMQHAYDFYKPDMLSEYPVVDGKLSIQCYLSALDRCYSVYRKKIRAQWQKEGKDKDFTLNDFGFMIFHSPYCKLVQKSLARMFLNDFLNDQNRDKNSIYSGLEAFGDVKLEDTYFDRDVEKAFMKASSELFNQKTKASLLVSNQNGNMYTSSVYGSLASVLAQYSPQQLAGKRVGVFSYGSGLAATLYSLKVTQDATPGSALDKITASLCDLKSRLDSRTCVAPDVFAENMKLREDTHHLANYIPQCSIDSLFEGTWYLVRVDEKHRRTYARRPFTNDHSLDEGMGLVHSNTATEHIPSPAKKVPRLPATSAESESAVISNGEH | YES | 7.26 | −0.06 | YES
